Some results are limits rather than exact numbers.

As usually defined, the Kd is the free concentration of one partner at which half of the binding sites on the other are occupied at equilibrium, for simple one-to-one binding. What is called IC50 is the midpoint of a concentration-inhibition curve.

Assay [1] concerns the target HLA-A*02:01. Put plainly: IEDB peptide-MHC binding, purified MHC/competitive/fluorescence; filed as Kd, often an IC50 or EC50 that approximates it; ≥ and ≤ were set here for values at or beyond the usual limits of such assays. As to conditions: source organism: Cryptococcus neoformans var. neoformans B-3501A.
Assay [2] addresses HLA-A*03:01. Described as above.
The target of assay [3] is HLA-A*26:01. The description is as above.
Assay [4] addresses HLA-B*15:01. The assay is described as above. As to conditions: source organism: Cryptococcus neoformans var. neoformans B-3501A.
Assay [5] deals with HLA-B*18:01. Described as above. The settings on record: source organism: Cryptococcus neoformans var. neoformans B-3501A.
Assay [6] deals with HLA-B*27:03. Described as above.
Assay [7] has as its target HLA-B*39:01. The description is as above.
Assay [8] has as its target HLA-B*46:01. Described as above. As to conditions: source organism: Cryptococcus neoformans var. neoformans B-3501A.
The target of assay [9] is HLA-B*57:01. The assay is described as above. As to conditions: source organism: Cryptococcus neoformans var. neoformans B-3501A.
The target of assay [10] is HLA-A*11:01. Put plainly: IEDB peptide-MHC binding, purified MHC/competitive/fluorescence; ≥ and ≤ were set here for values at or beyond the usual limits of such assays.
Assay [11] has as its target HLA-A*02:03. In words: IEDB peptide-MHC binding, purified MHC/competitive/radioactivity; filed as Kd, often an IC50 or EC50 that approximates it; ≥ and ≤ were set here for values at or beyond the usual limits of such assays.
Assay [12] concerns the target HLA-A*02:06. Described as above.
For assay [13], the target named is HLA-A*02:17. Described as above.
In assay [14] the target is HLA-A*68:02. The assay is described as above. As to conditions: source organism: Dengue virus 3 Martinique/1243/1999.
The target in assay [15] is HLA-A*02:01. The description is as above.
The target in assay [16] is HLA-A*02:01. Put plainly: IEDB peptide-MHC binding, purified MHC/competitive/fluorescence; ≥ and ≤ were set here for values at or beyond the usual limits of such assays. The settings on record: source organism: Zaire ebolavirus.
Assay [17] concerns the target HLA-A*01:01. Put plainly: IEDB peptide-MHC binding, purified MHC/direct/fluorescence; filed as Kd, often an IC50 or EC50 that approximates it; ≥ and ≤ were set here for values at or beyond the usual limits of such assays. The settings on record: source organism: Ebola virus - Gabon (1994-1997).
Assay [18] has as its target HLA-A*02:01. The assay is described as above. The settings on record: source organism: Ebola virus - Gabon (1994-1997).
Assay [19] has as its target HLA-A*02:12. The description is as above. The settings on record: source organism: Zaire ebolavirus.
Assay [20] has as its target HLA-A*02:19. Described as above. The settings on record: source organism: Zaire ebolavirus.
Assay [21] has as its target HLA-A*03:01. Described as above. As to conditions: source organism: Ebola virus - Gabon (1994-1997).
Assay [22] concerns the target HLA-A*11:01. Described as above. As to conditions: source organism: Ebola virus - Gabon (1994-1997).
In assay [23] the target is HLA-A*24:03. The assay is described as above. As to conditions: source organism: Zaire ebolavirus.
Assay [24] deals with HLA-A*29:02. Described as above. The settings on record: source organism: Ebola virus - Gabon (1994-1997).
For assay [25], the target named is HLA-A*31:01. The assay is described as above. The settings on record: source organism: Ebola virus - Gabon (1994-1997).
In assay [26] the target is HLA-A*68:02. The description is as above. As to conditions: source organism: Zaire ebolavirus.
The target of assay [27] is HLA-A*69:01. The description is as above. The settings on record: source organism: Ebola virus - Gabon (1994-1997).
In assay [28] the target is HLA-B*08:01. The assay is described as above. As to conditions: source organism: Ebola virus - Gabon (1994-1997).
The target in assay [29] is HLA-B*15:01. Described as above. As to conditions: source organism: Ebola virus - Gabon (1994-1997).
The target of assay [30] is HLA-B*18:01. The assay is described as above. The settings on record: source organism: Ebola virus - Gabon (1994-1997).
Assay [31] concerns the target HLA-B*27:05. The assay is described as above. As to conditions: source organism: Ebola virus - Gabon (1994-1997).
Assay [32] addresses HLA-B*40:01. The description is as above. The settings on record: source organism: Ebola virus - Gabon (1994-1997).
For assay [33], the target named is HLA-B*44:02. The assay is described as above. As to conditions: source organism: Ebola virus - Gabon (1994-1997).
Assay [34] concerns the target HLA-B*46:01. The description is as above. The settings on record: source organism: Ebola virus - Gabon (1994-1997).
Assay [35] has as its target HLA-B*48:01. Described as above. The settings on record: source organism: Ebola virus - Gabon (1994-1997).
Assay [36] has as its target HLA-B*57:01. Described as above. As to conditions: source organism: Ebola virus - Gabon (1994-1997).
The target in assay [37] is HLA-B*58:01. Described as above. As to conditions: source organism: Ebola virus - Gabon (1994-1997).
Assay [38] concerns the target HLA-B*51:01. Put plainly: IEDB peptide-MHC binding, purified MHC/competitive/fluorescence; filed as Kd, often an IC50 or EC50 that approximates it; ≥ and ≤ were set here for values at or beyond the usual limits of such assays. As to conditions: source organism: Zaire ebolavirus.
In assay [39] the target is HLA-B*15:17. Put plainly: IEDB peptide-MHC binding, purified MHC/direct/fluorescence; filed as Kd, often an IC50 or EC50 that approximates it; ≥ and ≤ were set here for values at or beyond the usual limits of such assays. The settings on record: source organism: West Nile virus.
The mark [40] stands for this setting: source organism: Cryptococcus neoformans var. neoformans B-3501A.
[41] abbreviates: source organism: Sudan ebolavirus.
Where [42] appears, read: source organism: Dengue virus 3 Martinique/1243/1999.
Where [43] appears, read: source organism: Dengue virus 3 China/80-2/1980.
Setting [44] is: source organism: Zaire ebolavirus.
Setting [45] is: source organism: Dengue virus 1 Singapore/S275/1990.
Where [46] appears, read: source organism: Dengue virus 1 Brazil/97-11/1997.
The mark [47] stands for this setting: source organism: Dengue virus 4 Dominica/814669/1981.
Where [48] appears, read: source organism: Dengue virus 4 Philippines/H241/1956.
The mark [49] stands for this setting: source organism: Dengue virus 2 Jamaica/1409/1983.

Turning to AIDDFCLFA, the Kd in assay [1] was 13.5 nM; in [2] (setting [40]), not below 20000 nM; in [3] (setting [40]) it was not below 20000 nM; in assay [4], not below 20000 nM; in [5] it was not below 20000 nM; in assay [6] (setting [40]) it was not below 20000 nM. Also, the Kd in assay [7] (setting [40]), in [8] and in [9] was not below 20000 nM in each case.
Turning to EDDDAASSR, the IC50 in assay [10] (setting [41]) was not below 70900 nM.
Regarding FLAIPPTAGV, the Kd was 1.72 nM in [11] (setting [42]), 120 nM in [12] (setting [42]), 11.9 nM in assay [13] (setting [43]) and 9.73 nM in [14].
GEWAFWENK: in [10] (setting [41]), the IC50 worked out at 26200 nM.
Consider GIMTIDLDPV, for which the Kd was found to be 11.7 nM in [15] (setting [43]), 25.2 nM in assay [11] (setting [42]), 83 nM in [12] (setting [42]) and 2080 nM in assay [13] (setting [43]).
For the sequence GLFNYFFGK, the Kd in assay [2] (source organism: Entamoeba histolytica HM-1:IMSS) came to 41 nM.
For GVNNLEHGL, the IC50 in assay [16] is 6440 nM; in [10] (setting [44]) it was not below 132000 nM.
For LLANILSEK, in assay [2] (source organism: Rickettsia sibirica 246), the Kd was 7.8 nM.
For the sequence LLATSIFKL, the figures for the Kd in [15] (setting [45]), in [11] (setting [46]) and in assay [13] (setting [45]) were 5 nM, 14.3 nM and 22.7 nM, respectively.
For LLMLLPTALA, the figures for the Kd in [15] (setting [45]), in [11] (setting [46]) and in [13] (setting [45]) were 128 nM, 49.9 nM and 5210 nM, respectively.
On to LMSGKDVFYL, for which the Kd in assay [15] (setting [43]) was found to be 4.76 nM; in assay [13] (setting [43]), 8.67 nM.
The sequence QAKKDFFSS returned a half-maximal inhibitory concentration (IC50) in assay [10] (setting [44]) of 66800 nM.
Consider QLSLKMLSL, for which the Kd in assay [17], in [18], in [19], in assay [20], in [21] and in assay [22] was not below 20000 nM in each case. In addition, the Kd in [23] is not below 20000 nM; in assay [24], not below 20000 nM; in assay [25] it was not below 20000 nM; in assay [26] it was not below 20000 nM; in [27], not below 20000 nM; in assay [28], 816 nM. For the same sequence, the Kd in [29], in assay [30], in assay [31], in assay [32], in [33] and in assay [34] was not below 20000 nM in each case. Moreover, the Kd in assay [35], in assay [36], in [37], in assay [3] (setting [44]), in assay [6] (setting [44]) and in [7] (setting [44]) was not below 20000 nM throughout. This sequence also showed a Kd in [38] not below 20000 nM.
Take RAWNSGYEW: the Kd in assay [39] was 4.4 nM.
As to SMGLITIAV, the results for the Kd in [15] (setting [47]) and in [13] (setting [47]) were 9.99 nM and 776 nM, respectively.
In the case of VLDHILQKT, the figures for the IC50 in [16] and in assay [10] (setting [44]) were 2620 nM and 55000 nM, respectively.
In assay [2] (source organism: Escherichia coli 536), VLGYSRMLY registered a Kd of 90.3 nM.
With YLALMATFKM, the Kd was determined as 12.8 nM in [15] (setting [45]) and 182 nM in assay [13] (setting [45]).
For YMGEDGCWYG, the Kd in [15] (setting [43]) worked out at 211 nM; in assay [13] (setting [43]), 6040 nM.
As to YQGKTVWFV, the Kd in assay [15] (setting [48]) came to 9.87 nM; in [12] (setting [48]) it was 12.3 nM; in [13] (setting [48]) it was 201 nM.
For YQLAVTIMA, the Kd was found to be 42.3 nM in assay [15] (setting [49]), 19.8 nM in [12] (setting [49]) and 10800 nM in assay [13] (setting [49]).

Source of the values: the Immune Epitope Database (IEDB).
